Measured values from patent US20200239573A1 (CRESCENDO BIOLOGICS, published 2020).

Experiments:
[1] = target: T1, human PD-1 on primary human CD4+ T cells (human, UniProt Q15116 21-288); experiment: flow cytometry, PHA-stimulated human CD4+ T cells, donor 2
Protocol: (§1) Binding of monovalent single domain antibodies and multivalent binding agents to T cells was measured using flow cytometry. […] T-cells were stimulated with 2.5 μg/ml PHA for 2-4 days in RPMI media supplemented with 10% FBS, 2 mM Glutamine, 1× Pen/Strep. Cells were transferred into 96 well plates (75000 per well), blocked for 10 mins with PBS/1% BSA, then incubated with serially diluted VH in staining buffer (PBS/1% BSA) for 1 hour at 4° C. Cells were washed with staining buffer by centrifugation then incubated with 10 μg/ml biotinylated Anti His antibody for 40 mins at 4° C. Cells were washed again then stained with Streptavidin Alexa Fluor-488 (10 μg/ml) and 1:5000 diluted Live Dead near IR stain (Molecular Probes cat no. L10119) for 30 mins at 4° C. After further washing cells were fixed and fluorescence measured by flow cytometry.

[2] = target: T2, human PD-1 expressed on cells (CHO human PD-1 cells) (human, UniProt Q15116 21-288); experiment: FMAT 1.57 epitope competition on CHO human PD-1 cells; competitor 1.57-Strep; sample kept 4 days in mouse serum
T2 construct: also called CHO TREX human PD-1 cell line; CHO PD-1
Protocol: (§2) For the epitope competition assay reagents were prepared in FMAT assay buffer. […] Plates were incubated for a minimum of 1.5 hours at room temperature then fluorescence measured in the FL2 (502 nm-537 nm) and FL5 (677-800 nm) channels on the Mirrorball plate reader (TTP) following excitation at 488 nm and 640 nm. Data was expressed as a % of the total binding control (i.e. % control) after subtraction of the background signal determined from the non-specific binding control wells.
(§3) Serum stability of VH and multivalent VH constructs was assessed by measurement of their activity following incubation for 0, 1, 4 or 7 days in mouse serum (Sigma M5905).

[3] = target: T2, human PD-1 expressed on cells (CHO …); experiment: FMAT 1.57 epitope competition on CHO human PD-1 cells; competitor 1.57-Strep; sample kept 0 days in mouse serum
Protocol: as §2, §3

[4] = target: T3, cynomolgus PD-1 recombinant protein (cynomolgus, UniProt B0LAJ3 25-170); experiment: HTRF binding, 2 nM PD-1, anti-Fc cryptate and anti-His-D2
T3 construct: Detected with anti human-Fc cryptate, so probably Fc tagged; also called cyno PD-1; cynomolgus PD-1 (Acro Biosystems cat no. PD-1-05254); not shown: The vendor's carrier tag; It is probably a human Fc, since detection used anti human-Fc cryptate
Protocol: (§4) e) Species Cross Reactivity Testing Purified […] were tested for their ability to bind to human PD-1 (R&D Systems cat no. 1086-PD), cynomolgus PD-1 (Acro Biosystems cat no. PD-1-05254) and mouse PD-1 (R&D Systems cat no. 1021-PD) in an HTRF Binding assay format. All reagents and serially diluted VH were prepared in assay buffer containing PBS, 0.1% BSA and 0.4M Potassium Fluoride. Samples or assay buffer (non-specific binding) were incubated with 2 nM human/cynomolgus or mouse PD-1, 1 nM Anti human-Fc Cryptate PAb (Cisbio cat. no. 61HFCKLB) and 30 nM anti His-D2 (CisBio cat no 61HISDLA) in black 384-shallow well assay plates for a minimum of 3 hours at room temperature. Time-resolved fluorescent emission at 620 nm and 665 nm was measured following excitation at 337 nm on the BMG PHERAstar plate reader. The HTRF ratio were calculated ((665 nm emission/620 nm emission)*10000) and the data corrected for (non-specific binding) to give the specific binding signal.

[5] = target: T4, recombinant human PD-1 Fc chimera (human, UniProt Q15116 25-167); experiment: as above
T4 construct: Bought protein; also called human PD-1-huFc; huPD-1-Fc; not shown: human Fc
Protocol: as §4

[6] = target: T2, human PD-1 expressed on cells (CHO …); experiment: FMAT inhibition; 200 pM PD-L2 on CHO human PD-1 cells
Protocol: as §2, with “All” for “For the epitope competition assay”, “reagents and serially diluted VH” for “reagents”, “2” for “a minimum of 1.5”

[7] = target: T1, human PD-1 on primary human CD4+ T cells; experiment: flow cytometry, PHA-stimulated human CD4+ T cells, donor 1
Protocol: as §1

[8] = target: T2, human PD-1 expressed on cells (CHO …); experiment: FMAT inhibition; 100 pM PD-L1-Fc on CHO human PD-1 cells
Protocol: as §2, with “All” for “For the epitope competition assay”, “reagents and serially diluted VH” for “reagents”, “2” for “a minimum of 1.5”

mouse PD-1 protein = target: T5, mouse PD-1 protein (mouse, UniProt Q02242 25-167); experiment: HTRF binding, 2 nM mouse PD-1
T5 construct: Detected with anti human-Fc cryptate, so probably Fc tagged; also called mouse PD-1 (R&D Systems cat no. 1021-PD)
T5 sequence (looked up): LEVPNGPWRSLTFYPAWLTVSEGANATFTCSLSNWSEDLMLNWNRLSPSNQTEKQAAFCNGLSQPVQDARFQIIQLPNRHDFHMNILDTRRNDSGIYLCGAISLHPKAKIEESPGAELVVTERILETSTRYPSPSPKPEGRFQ
Protocol: as §4

[9] = target: T2, human PD-1 expressed on cells (CHO …); experiment: FMAT 1.57 epitope competition on CHO human PD-1 cells; competitor 1.57-Strep; sample kept 7 days in mouse serum
Protocol: as §2, §3

[10] = target: T1, human PD-1 on primary human CD4+ T cells; experiment: flow cytometry, PHA-stimulated human CD4+ T cells, donor 3
Protocol: as §1

[11] = target: T2, human PD-1 expressed on cells (CHO …); experiment: cell-based or functional assay
[12] = target: T2, human PD-1 expressed on cells (CHO …); experiment: FMAT 1.57 epitope competition on CHO human PD-1 cells; competitor 1.57-Strep; sample kept 1 day in mouse serum
Protocol: as §2, §3

T2 sequence (Q15116 21-288): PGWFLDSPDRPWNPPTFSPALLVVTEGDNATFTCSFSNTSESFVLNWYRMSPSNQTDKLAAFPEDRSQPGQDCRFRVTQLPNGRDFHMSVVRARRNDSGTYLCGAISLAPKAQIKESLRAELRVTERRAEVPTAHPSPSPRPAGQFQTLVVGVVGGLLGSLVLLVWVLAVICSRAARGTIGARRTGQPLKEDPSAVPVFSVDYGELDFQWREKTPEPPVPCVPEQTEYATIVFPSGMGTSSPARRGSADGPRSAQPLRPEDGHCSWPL
T1 sequence (Q15116 21-288): as above
T4 sequence (Q15116 25-167 limits assumed, change not shown): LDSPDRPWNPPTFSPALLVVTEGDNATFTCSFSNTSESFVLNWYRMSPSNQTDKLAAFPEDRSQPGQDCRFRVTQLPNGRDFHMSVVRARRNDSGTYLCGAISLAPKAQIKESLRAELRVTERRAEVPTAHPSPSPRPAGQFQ
T3 sequence (B0LAJ3 entry or part of it limits assumed): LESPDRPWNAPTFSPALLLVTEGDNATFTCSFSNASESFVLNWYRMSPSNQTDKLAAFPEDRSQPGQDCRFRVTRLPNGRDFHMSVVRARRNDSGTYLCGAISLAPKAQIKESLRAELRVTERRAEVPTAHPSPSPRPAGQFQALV

- EC50 [1]: 1.1 nM
- IC50 [2]: 4.7 nM
- IC50 [3]: 4.4 nM
- EC50 [4]: 4.1 nM
- EC50 [5]: 2.6 nM
- IC50 [6]: 4 nM
- EC50 [7]: 0.8 nM
- IC50 [8]: 2.8 nM
- binding result (mouse PD-1 protein): no binding
- IC50 [9]: 5.2 nM
- EC50 [10]: 1.2 nM
- Reporter Assay EC50 [11]: 13 nM
- IC50 [12]: 4.4 nM
B1: Humabody® 1.92 (VHH)
VHH: EVQLVESGGGLVKPGGSLRLSCAASGFTFSDESMTWMRQAPGKGLEWVSYISSGGGVKFYADSVKGRFTISRDNAKNSLYLQMNSLRAEDTAVYYCAREAPLRLGESPHDAFDISGQGTMVTVSS
notes: human VH single domain antibody
